# What was measured:
# [1] = target: Ac-SLP-1, saposin-like protein from the dog hookworm Ancylostoma caninum (Ancylostoma caninum); experiment: native gel or EMSA; native gel of purified Ac-SLP-1; migrates at 20 kDa under native conditions, at smaller sizes with SDS
# [2] = target: Ac-SLP-1, saposin-like protein from the dog hookworm Ancylostoma caninum (Ancylostoma caninum); experiment: SEC-MALS; Superose-12 column; samples injected at 5–10 mg mL^−1; 100 mM NaCl, 20 mM HEPES (pH 7.5) or 100 mM Na-citrate (pH 5.0); same result at both pH
substance,measurement,setting,value
"Ac-SLP-1, saposin-like protein from the dog hookworm Ancylostoma caninum (natural protein)",stoichiometry N,[1],2
same,stoichiometry N,[2],2
